Measured values published in US20240287138A1 (Merck Sharp & Dohme, published 2024).
Bridge positions count the residues as written; N and C are the ends. Square brackets hold non-standard residues; d marks the D form. Primed or numbered codes have the meaning given here. Trp(βS-Me,7-OMe) = COc1cccc2c([C@H](C)[C@H](N)C(=O)O)c[nH]c12; Phe(2-F,4-COOH) = N[C@@H](Cc1ccc(C(=O)O)cc1F)C(=O)O; Trp(7-CN) = N#Cc1cccc2c(C[C@H](N)C(=O)O)c[nH]c12; Trp(7-Cl) = N[C@@H](Cc1c[nH]c2c(Cl)cccc12)C(=O)O; Phe(3-COOH) = N[C@@H](Cc1cccc(C(=O)O)c1)C(=O)O; Phe(4-CONH2) = NC(=O)c1ccc(C[C@H](N)C(=O)O)cc1; Phe(4-COOH) = N[C@@H](Cc1ccc(C(=O)O)cc1)C(=O)O; Trp(7-aza) = N[C@@H](Cc1c[nH]c2ncccc12)C(=O)O; Phe(4-CH2NH2) = NCc1ccc(C[C@H](N)C(=O)O)cc1; dPro(trans-4-F) = O=C(O)[C@H]1C[C@H](F)CN1; Pip(4-aza) = O=C(O)[C@@H]1CNCCN1; 3Pal = N[C@@H](Cc1cccnc1)C(=O)O; 4Pal = N[C@@H](Cc1ccncc1)C(=O)O; NMeE = CN[C@@H](CCC(=O)O)C(=O)O; dHyp = O=C(O)[C@H]1C[C@H](O)CN1; dNMeE = CN[C@H](CCC(=O)O)C(=O)O; Phe4AcPip = not defined here; Pipt5OH = not defined here; αMeS = C[C@](N)(CO)C(=O)O; Nle = CCCC[C@H](N)C(=O)O; Pip2c = not defined here; TZAla = not defined here; Ahp′ = not defined here; Pip′ = not defined here; Sar = CNCC(=O)O

B1: SEQ ID NO. 126 (peptide)
peptide: cyclo([bhcLeu][Nle][4Pal][Pipt5OH]W[NMeE]N[4Pal][Trp(7-Cl)][αMeS][Phe(4-CONH2)][TyrOcm][Sar][Trp(βS-Me,7-OMe)])
modifications: reading uncertain; also: printed as cyclo(bhcLeu-Nle-4Pal-Pipt5OH-W-NMeE-N-4Pal-Trp7Cl-aMeS-Phe4CONH2-TyrOcm-Sar-SbMeW7OMe)
B2: SEQ ID NO. 25 (peptide)
peptide: cyclo([bhcLeu][Nle][4Pal][Pipt5OH]W[dHyp][SbOHAsn][4Pal][Trp(7-CN)][αMeS][Phe(4-CONH2)][Phe(4-COOH)][Sar][Trp(βS-Me,7-OMe)])
modifications: reading uncertain; also: printed as cyclo(bhcLeu-Nle-4Pal-Pipt5OH-W-dProt4OH-SbOHAsn-4Pal-Trp7CN-aMeS-Phe4CONH2-Phe4COOH-Sar-SbMeW7OMe)
B3: SEQ ID NO. 111 (peptide)
peptide: cyclo([bhcLeu][Nle][4Pal][Pip2c]W[NMeE]N[4Pal][Trp(7-Cl)][αMeS][F4MCO2H]Y[Sar][Trp(βS-Me,7-OMe)])
modifications: reading uncertain; also: printed as cyclo(bhcLeu-Nle-4Pal-Pip2c-W-NMeE-N-4Pal-Trp7Cl-aMeS-F4MCO2H-Y-Sar-SbMeW7OMe)
B4: SEQ ID NO. 108 (peptide)
peptide: cyclo([bhcLeu][Nle][4Pal][Pip2c]W[NMeE]N[Phe(2-F,4-COOH)][Trp(7-Cl)][αMeS][Phe(4-COOH)]Y[Sar][Trp(βS-Me,7-OMe)])
modifications: reading uncertain; also: printed as cyclo(bhcLeu-Nle-4Pal-Pip2c-W-NMeE-N-Phe2F4COOH-Trp7Cl-aMeS-Phe4COOH-Y-Sar-SbMeW7OMe)
B5: SEQ ID NO. 55 (peptide)
peptide: cyclo([bhcLeu][Ahp′][SbMe4Pal]DW[dHyp]N[Phe(4-COOH)][Trp(7-CN)][αMeS][Phe(4-CONH2)][Phe(4-CONH2)][Sar][Trp(βS-Me,7-OMe)])
modifications: reading uncertain; also: printed as cyclo(bhcLeu-Ahp-SbMe4Pal-D-W-dProt4OH-N-Phe4COOH-Trp7CN-aMeS-Phe4CONH2-Phe4CONH2-Sar-SbMeW7OMe)
B6: SEQ ID NO. 117 (peptide)
peptide: cyclo([bhcLeu][Nle][4Pal][Pip2c]W[NMeE]N[Phe4COOMe][Trp(7-Cl)][αMeS][Phe(4-COOH)]Y[Sar][Trp(βS-Me,7-OMe)])
modifications: reading uncertain; also: printed as cyclo(bhcLeu-Nle-4Pal-Pip2c-W-NMeE-N-Phe4COOMe-Trp7Cl-aMeS-Phe4COOH-Y-Sar-SbMeW7OMe)
B7: SEQ ID NO. 137 (peptide)
peptide: cyclo([bhcLeu][hL][4Pal][Pip2c]W[NMeE]N[4Pal][Trp(7-Cl)][αMeS][Phe(4-COOH)]Y[Sar][Trp(βS-Me,7-OMe)])
modifications: reading uncertain; also: printed as cyclo(bhcLeu-hL-4Pal-Pip2c-W-NMeE-N-4Pal-Trp7Cl-aMeS-Phe4COOH-Y-Sar-SbMeW7OMe)
B8: SEQ ID NO. 142 (peptide)
peptide: cyclo([bhcLeu][SerOEt][4Pal][Pipt5OH]W[dHyp]N[4Pal][Trp(7-Cl)][αMeS][Phe(4-CONH2)][Phe(4-COOH)][Sar][Trp(βS-Me,7-OMe)])
modifications: reading uncertain; also: printed as cyclo(bhcLeu-SerOEt-4Pal-Pipt5OH-W-dProt4OH-N-4Pal-Trp7Cl-aMeS-Phe4CONH2-Phe4COOH-Sar-SbMeW7OMe)
B9: SEQ ID NO. 24 (peptide)
peptide: cyclo([bhcLeu][Nle][4Pal][Pip2c]W[NMeE]N[4Pal][Trp(7-Cl)][αMeS][Phe(4-COOH)][Tyr3OMe][Sar][Trp(βS-Me,7-OMe)])
modifications: reading uncertain; also: printed as cyclo(bhcLeu-Nle-4Pal-Pip2c-W-NMeE-N-4Pal-Trp7Cl-aMeS-Phe4COOH-Tyr3OMe-Sar-SbMeW7OMe)
B10: SEQ ID NO. 52 (peptide)
peptide: {CH2CO}-[Nle][4Pal][Pip2c][TrpCH2COOH][NMeE]N[Phe(4-COOH)][Trp(7-Cl)][αMeS][Phe(4-CONH2)]Y[Sar][Trp(βS-Me,7-OMe)]C-NH2
modifications: thioether N-14; reading uncertain; also: printed as cyclo(ClAc-Nle-4Pal-Pip2c-TrpCH2COOH-NMeE-N-Phe4COOH-Trp7Cl-aMeS-Phe4CONH2-Y-Sar-SbMeW7OMe-C)-NH2
B11: SEQ ID NO. 63 (peptide)
peptide: cyclo([bhcLeu][Nle][4Pal][Pip2c]W[NMeE]N[4Pal][Trp(7-Cl)][αMeS][Phe(4-COOH)][Phe4AcPip][Sar][Trp(βS-Me,7-OMe)])
modifications: reading uncertain; also: printed as cyclo(bhcLeu-Nle-4Pal-Pip2c-W-NMeE-N-4Pal-Trp7Cl-aMeS-Phe4COOH-Phe4AcPip-Sar-SbMeW7OMe)
B12: SEQ ID NO. 28 (peptide)
peptide: cyclo([bhcLeu][Nle][4Pal][Pip2c]W[NMeE]N[4Pal][Trp(7-Cl)][αMeS][Phe(3-COOH)]Y[Sar][Trp(βS-Me,7-OMe)])
modifications: reading uncertain; also: printed as cyclo(bhcLeu-Nle-4Pal-Pip2c-W-NMeE-N-4Pal-Trp7Cl-aMeS-Phe3COOH-Y-Sar-SbMeW7OMe)
B13: SEQ ID NO. 107 (peptide)
peptide: cyclo([bhcLeu][Nle][4Pal][Pip2c]W[NMeE]N[4Pal][Trp(7-Cl)][αMeS][Phe(4-COOH)][Phe(2-F,4-COOH)][Sar][Trp(βS-Me,7-OMe)])
modifications: reading uncertain; also: printed as cyclo(bhcLeu-Nle-4Pal-Pip2c-W-NMeE-N-4Pal-Trp7Cl-aMeS-Phe4COOH-Phe2F4COOH-Sar-SbMeW7OMe)
B14: SEQ ID NO. 40 (peptide)
peptide: cyclo([bhcLeu][Nle][3Pal][Pip2c]W[NMeE]N[4Pal][Trp(7-Cl)][αMeS][Phe(4-COOH)]Y[Sar][Trp(βS-Me,7-OMe)])
modifications: reading uncertain; also: printed as cyclo(bhcLeu-Nle-3Pal-Pip2c-W-NMeE-N-4Pal-Trp7Cl-aMeS-Phe4COOH-Y-Sar-SbMeW7OMe)
B15: SEQ ID NO. 138 (peptide)
peptide: cyclo([bhcLeu][Nle][4Pal][Pip2c]W[NMeE]N[TZAla][Trp(7-Cl)][αMeS][Phe(4-COOH)]Y[Sar][Trp(βS-Me,7-OMe)])
modifications: reading uncertain; also: printed as cyclo(bhcLeu-Nle-4Pal-Pip2c-W-NMeE-N-TZAla-Trp7Cl-aMeS-Phe4COOH-Y-Sar-SbMeW7OMe)
B16: SEQ ID NO. 279 (peptide)
peptide: {CH2CO}-[Nle][4Pal][Pip(4-aza)]W[dPro(trans-4-F)]N[4Pal][Trp(7-Cl)][αMeS][Phe(4-COOH)]Y[Sar][Trp(βS-Me,7-OMe)]C-NH2
modifications: thioether N-14
SMILES: CCCC[C@@H]1NC(=O)CSC[C@@H](C(N)=O)NC(=O)[C@H]([C@@H](C)c2c[nH]c3c(OC)cccc23)NC(=O)CN(C)C(=O)[C@H](Cc2ccc(O)cc2)NC(=O)[C@H](Cc2ccc(C(=O)O)cc2)NC(=O)[C@](C)(CO)NC(=O)[C@H](Cc2c[nH]c3c(Cl)cccc23)NC(=O)[C@H](Cc2ccncc2)NC(=O)[C@H](CC(N)=O)NC(=O)[C@H]2C[C@H](F)CN2C(=O)[C@H](Cc2c[nH]c3ccccc23)NC(=O)[C@@H]2CNCCN2C(=O)[C@H](Cc2ccncc2)NC1=O

Experiments:
[1] = molecular target: T1, TNFR1 on THP-1 Lucia NF-kB reporter cells (UniProt P19438 30-455, limits assumed); test: cell-based or functional assay
T1 sequence (looked up): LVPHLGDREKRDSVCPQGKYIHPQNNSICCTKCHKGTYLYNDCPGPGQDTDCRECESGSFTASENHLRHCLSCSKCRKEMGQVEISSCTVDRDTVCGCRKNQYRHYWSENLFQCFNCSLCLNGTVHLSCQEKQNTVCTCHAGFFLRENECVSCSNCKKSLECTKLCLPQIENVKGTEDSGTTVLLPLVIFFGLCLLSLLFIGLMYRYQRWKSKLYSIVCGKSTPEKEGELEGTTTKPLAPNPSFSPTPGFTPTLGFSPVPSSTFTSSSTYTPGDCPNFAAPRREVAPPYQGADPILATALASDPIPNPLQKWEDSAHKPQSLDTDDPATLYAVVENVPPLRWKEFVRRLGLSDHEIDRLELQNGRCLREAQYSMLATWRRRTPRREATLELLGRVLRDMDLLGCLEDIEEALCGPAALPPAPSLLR

[2] = molecular target: T2, TNFR1 on THP-1 Lucia NF-κB cells (UniProt P19438 30-455, limits assumed); test: cell-based or functional assay
T2 sequence (looked up): T1 sequence (looked up)

Binder | THP-1 IC50 [1] | THP-1 IC50 [2]
B1 | 0.8 nM | –
B2 | 0.8 nM | –
{CH2CO}-[Nle][4Pal][Pip′][Trp(7-aza)][NMeE]N[Phe(4-CH2NH2)][Trp(7-Cl)][αMeS][Phe(4-CH2NH2)]Y[Sar][Trp(βS-Me,7-OMe)]C-NH2 (thioether N-14) [SEQ ID NO. 58] | 16.2 nM | –
cyclo([bhcLeu][Nle][4Pal][Pipc5CO2H]W[NMeE]N[4Pal][Trp(7-Cl)][αMeS][Phe(4-COOH)]Y[Sar][Trp(βS-Me,7-OMe)]) [SEQ ID NO. 120] | 1.4 nM | –
cyclo([bhcLeu][LysMe3][4Pal][Pip′]W[NMeE]N[4Pal][Trp(7-Cl)][αMeS][Phe(4-COOH)]Y[Sar][Trp(βS-Me,7-OMe)]) [SEQ ID NO. 47] | 1.9 nM | –
B3 | 1.6 nM | –
B4 | 1.2 nM | –
B5 | 1.3 nM | –
B6 | 2.1 nM | –
B7 | 1.3 nM | –
B8 | 1.1 nM | –
B9 | 0.7 nM | –
{CH2CO}-[Nle][4Pal][Prot4NH2][Trp(7-aza)][NMeE]N[4Pal][Trp(7-Cl)][αMeS][Phe(4-COOH)]Y[Sar][Trp(βS-Me,7-OMe)]C-NH2 (thioether N-14) [SEQ ID NO. 125] | 4.1 nM | –
B10 | 3.9 nM | –
B11 | 1.2 nM | –
B12 | 1.6 nM | –
B13 | 1 nM | –
B14 | 1.5 nM | –
cyclo([bhcLeu][Nle][4Pal][Pipt5OH][Trp(7-aza)][dNMeE]N[F4SO2NH2][Trp(7-CN)][αMeS][Phe(4-CONH2)][Phe(4-COOH)][Sar][Trp(βS-Me,7-OMe)]) (reading uncertain) [SEQ ID NO. 133] | 1.4 nM | –
B15 | 2 nM | –
B16 | – | 1.4 nM
